This is an account of results in PMC10178127, “Immunomodulatory Effects of the Pea Defensin Psd1 in the Caco-2/Immune Cells Co-Culture upon Candida albicans Infection” (International Journal of Molecular Sciences, 2023).

In one data set the test system is C. albicans v47a3. The data set is described as follows: Yeast growth in Caco-2/C. albicans co-culture, microscopy. The format is cell-based, Candida albicans. Particulars: 2 μM Psd1, 4 and 24 h. As to the method: Candida albicans cells in stock were inoculated onto modified YPD (yeast extract 5 g/L, peptone 10 g/L, glucose 10 g/L) agar plates, and incubated for 24 h at 37 °C. After replating, cells were cultured in complete RPMI-1640 (Capricorn Scientific) without antibiotics at 37 °C to optical density 1.0 at 540 nm, centrifuged, and diluted up to the concentration of 5 × 10^4 cells/mL in fresh RPMI-1640 without FBS and antibiotics. In the case of studying combined action on the epithelium of yeast cells and the pea Psd1 recombinant peptide was dissolved in water at the concentration of 200 μM and was added to yeast cell suspension up to the final concentration of 2 μM. Yeast growth and morphology in the presence or absence of peptide under co-cultivation with Caco-2 cells in a 24-well plate were estimated using an inverted microscope, Olympus CKX41 (Olympus, Tokyo, Japan).

The test system of data set [1] is Beas-2B human bronchial epithelial cells. The settings on record: cited from earlier work. The source says: It was shown previously that pea Psd1 is not toxic for Beas-2B human bronchial epithelial cells. Here we investigated the cytotoxic action of the pea Psd1 on human immune cells by using a human peripheral blood mononuclear cells (PBMCs) fraction.

“Psd1: pea defensin from Pisum sativum (UNIPROT P81929), recombinant peptide overexpressed in Escherichia coli (KTCEHLADTYRGVCFTNASCDDHCKNKAHLISGTCHNWKCFCTQNC; UniProt P81929 1-46, looked up)”: the “growth of C. albicans in Caco-2/C. albicans co-culture” value with C. albicans v47a3 is “did not inhibit the growth of C. albicans”. Also, the “toxicity for Beas-2B cells” value in data set [1] is given as “not toxic”.
